We go through two sequences from PMC5295013.

As a reminder, the Kd is the concentration at which binding is half-saturated. A high value points to weaker binding.

The series deals with Gp90 D234A (DNA polymerase, exonuclease-deficient) (Pseudomonas aeruginosa phage PaP1). As to the kind of experiment: SPR. The settings on record: SPR (Biacore 3000, SA chip, steady-state fit): 40 mM Tris-HCl pH 7.5, 10 mM DTT, 50 mM potassium glutamate, room temperature, 20-600 nM protein, ternary assays ….

Take “TTTGCTACAGAGTTATGGTGACGATACGTC / TGAATTCTAATGTAGTATAGTAATCCGCTCTATCGGACGTATCGTCACCATAACTCTGTAGC [30-mer(dd)/62-mer G primer-template]”: the Kd is, setting by setting: (30 mM Mg2+, 1 mM dCTP (ternary complex), primer 3'-terminal dideoxycytidine (ddC, chain terminator)) 11 nM; (no Mg2+, no dNTP (binary complex), primer 3'-terminal dideoxycytidine (ddC, chain terminator)) 108 nM.

In the case of “TTTGCTACAGAGTTATGGTGACGATACGTC / TGAATTCTAATGTAGTATAGTAATCCGCTCTATCGGACGTATCGTCACCATAACTCTGTAGC [30-mer(dd)/62-mer 8-oxoG primer-template]”, the Kd stood at 45 nM (30 mM Mg2+, 1 mM dATP (ternary complex, mispair), 8-oxoG at template position 35 from 5' end (28th from 3' end, first templating base), primer 3'-terminal ddC); 34 nM (30 mM Mg2+, 1 mM dCTP (ternary complex), 8-oxoG at template position 35 from 5' end (28th from 3' end, first templating base), primer 3'-terminal ddC); 116 nM (no Mg2+, no dNTP (binary complex), 8-oxoG at template position 35 from 5' end (28th from 3' end, first templating base), primer 3'-terminal ddC).
